Measurements reported in PMC4108320, “Two Structurally Different Dienelactone Hydrolases (TfdEI and TfdEII) from Cupriavidus necator JMP134 Plasmid pJP4 Catalyse Cis- and Trans-Dienelactones with Similar Efficiency” (PLoS ONE, 2014).

Substrate: O=C(O)/C=C1/C=CC(=O)O1
Assay: purified protein
Type: biochemical, Cupriavidus pinatubonensis
Settings: Tris-Cl pH 7.0, 37 °C, 0.5 µM enzyme, 1-1000 µM substrate

B1: TfdEI (Cupriavidus pinatubonensis JMP134) (protein)
chain: MLSDGVEITSRSGGRFGAYLGKPTTDSAPIVVIAQEIFGITPFIRETVEWLVGAGFGCVCPDLYWRQAPNIELDANVPSEREQALALFRDFDMEAGVNDLSCAIEYARALPFSNGRVAVVGYCLGGALAFDVAARSLADCSIGYYGVGLEKKVSLVPAITRPAMFHMGTKDHYVTEEARSILEEHFGRNKNLSLHWYPVGHSFARSSSPNFDQAATTVANARTLELLAMLKDPS
notes: full-length tfdEI ORF (705 bp, 234 aa) in pET21b BamHI/HindIII; stop codon in reverse primer; E. coli BL21(DE3); about 25 kDa, monomeric
B1 was tested, and the Km was 84 µM and the Vmax was 9.09 µM/min.

B2: TfdEII (Cupriavidus pinatubonensis JMP134) (protein)
chain: MCHDTAPALFPRTASTGSIDGAICALCYAGATRGPRLLVLPDIYGCNAFYRGYAAYLAEQGAGEVLLVDPFAAFGELATVTREAAFQRRHRLADRAYVEELIDFIDGQRIEGVVGFCLGGLFVFELARQQVVSRLVAYYPFPQGLENRDPLDVPFDYLPALRSRHTVIVGDDDALLGTQNLQRLQAQARANDAIDLHIMNGAGHGFLADLESPDTARAAVAKRGLRIGTTTLLGG
notes: full-length tfdEII ORF (708 bp, 235 aa) in pET21b BamHI/HindIII; stop codon in reverse primer; E. coli BL21(DE3); about 25 kDa, monomeric
In the case of B2, the Km is reported as 178 µM and the Vmax is reported as 8.38 µM/min.
